For this assay, the target named is hemagglutinin (HA) of H1N1 virus strain A/Brazil/1403/2003 (influenza A virus H1N1, A/Brazil/1403/2003). The assay is described as follows: cell-based or functional assay.

In turn, mAb CH67 (antibody) returned a mAb minimum effective concentration (EC99, microneutralization on MDCK cells) of 0.195 µg/mL.

With “mAb CH65, recombinant intact IgG1 (antibody)”, the mAb minimum effective concentration (EC99, microneutralization on MDCK cells) came out at 3.12 µg/mL.
